Reference: patent US20180155451A1 (published 2018)
Where a chain is given by its changes, count along the chain named.

T1: FcγRIIa R (FcγRIIa, allotype R, Arg at position 131), extracellular domain with C-terminal His tag (human, UniProt P12318 34-217)
T1 construct: extracellular domain; soluble receptor used as Biacore analyte; also called 2aR; FcgRIIa R
T1 sequence (looked up): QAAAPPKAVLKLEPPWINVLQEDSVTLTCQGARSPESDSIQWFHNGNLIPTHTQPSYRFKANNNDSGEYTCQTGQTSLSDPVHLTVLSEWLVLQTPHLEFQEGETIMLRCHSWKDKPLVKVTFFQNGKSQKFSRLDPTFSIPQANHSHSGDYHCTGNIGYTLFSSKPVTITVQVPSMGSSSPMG

T2: FcγRIIb, extracellular domain with C-terminal His tag (human, UniProt P31994 43-217)
T2 construct: extracellular domain; soluble receptor used as Biacore analyte; also called 2b; FcgRIIb
T2 sequence (looked up): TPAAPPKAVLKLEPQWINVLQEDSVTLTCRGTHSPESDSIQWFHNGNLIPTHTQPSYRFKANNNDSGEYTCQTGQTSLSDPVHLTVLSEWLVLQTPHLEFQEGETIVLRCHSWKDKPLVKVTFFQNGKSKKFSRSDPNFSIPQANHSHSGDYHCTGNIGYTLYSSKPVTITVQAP

T3: FcγRIIa H (FcγRIIa type H, His at position 131), extracellular domain with C-terminal His tag (human, UniProt P12318 34-217)
T3 construct: extracellular domain; Expressed in FreeStyle293 cells; analyte in the Biacore assay; also called FcgRIIa H; 2aH; not shown: His tag at the C terminus
T3 sequence (looked up): T1 sequence (looked up) with R134H

B1: heterodimerized antibody GpH7-A5/GpH7-B3 variant S267_08L/GpL16-k0 (antibody, human IgG1, kappa)
heavy 1: not shown
heavy 2: not shown
light: DIVMTQSPLSLPVTPGEPASISCQASESLVHSNRNTYLHWYLQKPGQSPQLLIYKVSNRFSGVPDRFSGSGSGTDFTLKISRVEAEDVGVYYCSQNTHVPPTFGQGTKVEIERTVAAPSVFIFPPSDEQLKSGTASVVCLLNNFYPREAKVQWKVDNALQSGNSQESVTEQDSKDSTYSLSSTLTLSKADYEKHKVYACEVTHQGLSSPVTKSFNRGEC
notes: He Ab: anti-glypican-3 IgG1, alteration in one H chain only; also called He Ab
B2: heterodimerized antibody GpH7-A5/GpH7-B3 variant L328_12R/GpL16-k0 (antibody, human IgG1, kappa)
heavy 1: not shown
heavy 2: not shown
light: B1 light
notes: as for B1
B3: heterodimerized antibody GpH7-A5/GpH7-B3 variant A327_18N/GpL16-k0 (antibody, human IgG1, kappa)
heavy 1: not shown
heavy 2: not shown
light: B1 light
notes: as for B1
B4: heterodimerized antibody GpH7-A5/GpH7-B3 variant L328_11K/GpL16-k0 (antibody, human IgG1, kappa)
heavy 1: not shown
heavy 2: not shown
light: B1 light
notes: as for B1
B5: heterodimerized antibody GpH7-A5/GpH7-B3 variant H268_09D/GpL16-k0 (antibody, human IgG1, kappa)
heavy 1: not shown
heavy 2: not shown
light: B1 light
notes: as for B1
B6: heterodimerized antibody GpH7-A5/GpH7-B3 variant A327_12R/GpL16-k0 (antibody, human IgG1, kappa)
heavy 1: not shown
heavy 2: not shown
light: B1 light
notes: as for B1
B7: heterodimerized antibody GpH7-A5/GpH7-B3 variant K326_07I/GpL16-k0 (antibody, human IgG1, kappa)
heavy 1: not shown
heavy 2: not shown
light: B1 light
notes: as for B1
B8: heterodimerized antibody GpH7-A5/GpH7-B3 variant A327_07I/GpL16-k0 (antibody, human IgG1, kappa)
heavy 1: not shown
heavy 2: not shown
light: B1 light
notes: as for B1
B9: heterodimerized antibody GpH7-A5/GpH7-B3 variant H268_02A/GpL16-k0 (antibody, human IgG1, kappa)
heavy 1: not shown
heavy 2: not shown
light: B1 light
notes: as for B1
B10: heterodimerized antibody GpH7-A5/GpH7-B3 variant K326_08L/GpL16-k0 (antibody, human IgG1, kappa)
heavy 1: not shown
heavy 2: not shown
light: B1 light
notes: as for B1
B11: heterodimerized antibody GpH7-A5/GpH7-B3 variant G237_20W/GpL16-k0 (antibody, human IgG1, kappa)
heavy 1: not shown
heavy 2: not shown
light: B1 light
notes: as for B1
B12: heterodimerized antibody GpH7-A5/GpH7-B3 variant D270_05P/GpL16-k0 (antibody, human IgG1, kappa)
heavy 1: not shown
heavy 2: not shown
light: B1 light
notes: as for B1
B13: heterodimerized antibody GpH7-A5/GpH7-B3 variant G236_09D/GpL16-k0 (antibody, human IgG1, kappa)
heavy 1: not shown
heavy 2: not shown
light: B1 light
notes: as for B1
B14: heterodimerized antibody GpH7-A5/GpH7-B3 variant H268_13S/GpL16-k0 (antibody, human IgG1, kappa)
heavy 1: not shown
heavy 2: not shown
light: B1 light
notes: as for B1
B15: heterodimerized antibody GpH7-A5/GpH7-B3 variant A327_10E/GpL16-k0 (antibody, human IgG1, kappa)
heavy 1: not shown
heavy 2: not shown
light: B1 light
notes: as for B1
B16: heterodimerized antibody GpH7-A5/GpH7-B3 variant H268_10E/GpL16-k0 (antibody, human IgG1, kappa)
heavy 1: not shown
heavy 2: not shown
light: B1 light
notes: as for B1
B17: heterodimerized antibody GpH7-A5/GpH7-B3 variant K326_09D/GpL16-k0 (antibody, human IgG1, kappa)
heavy 1: not shown
heavy 2: not shown
light: B1 light
notes: as for B1
B18: heterodimerized antibody GpH7-A5/GpH7-B3 variant A327_09D/GpL16-k0 (antibody, human IgG1, kappa)
heavy 1: not shown
heavy 2: not shown
light: B1 light
notes: as for B1
B19: heterodimerized antibody GpH7-A5/GpH7-B3 variant G237_09D/GpL16-k0 (antibody, human IgG1, kappa)
heavy 1: not shown
heavy 2: not shown
light: B1 light
notes: as for B1
B20: GpH7-A5/GpH7-B3 variant A327_12R/GpL16-k0 (antibody, human IgG1, kappa)
heavy 1: not shown
heavy 2: not shown
light: B1 light
notes: He Ab; IgG1; mutation in one H chain only; also called He Ab
B21: GpH7-A5/GpH7-B3 variant L328_12R/GpL16-k0 (antibody, human IgG1, kappa)
heavy 1: not shown
heavy 2: not shown
light: B1 light
notes: as for B20
B22: GpH7-A5/GpH7-B3 variant L328_11K/GpL16-k0 (antibody, human IgG1, kappa)
heavy 1: not shown
heavy 2: not shown
light: B1 light
notes: as for B20
B23: GpH7-A5/GpH7-B3 variant Y300_08L/GpL16-k0 (antibody, human IgG1, kappa)
heavy 1: not shown
heavy 2: not shown
light: B1 light
notes: heterodimerized IgG1; mutation in one H chain only; also called He Ab
B24: GpH7-A5/GpH7-B3 variant Y300_06M/GpL16-k0 (antibody, human IgG1, kappa)
heavy 1: not shown
heavy 2: not shown
light: B1 light
notes: as for B23
B25: GpH7-A5/GpH7-B3 variant Y300_10E/GpL16-k0 (antibody, human IgG1, kappa)
heavy 1: not shown
heavy 2: not shown
light: B1 light
notes: as for B23
B26: GpH7-A5/GpH7-B3 variant Y300_14T/GpL16-k0 (antibody, human IgG1, kappa)
heavy 1: not shown
heavy 2: not shown
light: B1 light
notes: as for B23
B27: GpH7-A5/GpH7-B3 variant Y300_13S/GpL16-k0 (antibody, human IgG1, kappa)
heavy 1: not shown
heavy 2: not shown
light: B1 light
notes: as for B23
B28: GpH7-A5/GpH7-B3 variant Y300_03V/GpL16-k0 (antibody, human IgG1, kappa)
heavy 1: not shown
heavy 2: not shown
light: B1 light
notes: as for B23
B29: GpH7-A5/GpH7-B3 variant Y300_09D/GpL16-k0 (antibody, human IgG1, kappa)
heavy 1: not shown
heavy 2: not shown
light: B1 light
notes: as for B23
B30: GpH7-A5/GpH7-B3 variant Y300_19Q/GpL16-k0 (antibody, human IgG1, kappa)
heavy 1: not shown
heavy 2: not shown
light: B1 light
notes: as for B23
B31: GpH7-A5/GpH7-B3 variant Y300_02A/GpL16-k0 (antibody, human IgG1, kappa)
heavy 1: not shown
heavy 2: not shown
light: B1 light
notes: as for B23
B32: GpH7-A5/GpH7-B3 variant Y296_20W/GpL16-k0 (antibody, human IgG1, kappa)
heavy 1: not shown
heavy 2: not shown
light: B1 light
notes: as for B23
B33: GpH7-A5/GpH7-B3 variant Y300_11K/GpL16-k0 (antibody, human IgG1, kappa)
heavy 1: not shown
heavy 2: not shown
light: B1 light
notes: as for B23
B34: GpH7-A5/GpH7-B3 variant Y300_20W/GpL16-k0 (antibody, human IgG1, kappa)
heavy 1: not shown
heavy 2: not shown
light: B1 light
notes: as for B23

Target: T1, FcγRIIa R (FcγRIIa, allotype R, Arg at …)
Experiment: Biacore SPR; He/Con_2aR divided by He/Con_2b (FcγRIIb)
Experimental: (§1) The heterodimerized antibodies He Abs in which one of the H chains was introduced with an alteration were assayed for their binding activities to each activating FcγR and inhibitory FcγR according to the method described in Example 4. […] The activating FcγRs in FIGS. 26, 27, 28, and 29 are FcγRIa, FcγRIIa (R), FcγRIIa (H), and FcγRIIIa, respectively.
(§2) Analysis of interaction between objective antibody and the FcγR was carried out using Biacore T100 (GE Healthcare). HBS-EP+ (GE Healthcare) was used as the running buffer, and the measurement temperature was set to 25° C. Chips produced by immobilizing the antigen peptide by the amine coupling method to a Series S Sencor Chip CM5 (GE Healthcare), or alternatively, chips produced by allowing preliminarily biotinylated antigen peptides to interact with and immobilize onto a Series S Sensor Chip SA (certified) (GE Healthcare) were used. Antibodies of interest were captured onto an antigen peptide-immobilized chip, and allowed to interact to each FcγR diluted with running buffer. To regenerate and repeatedly use the chip, the antibodies captured on the chip were washed off by reacting 10 mM glycine-HCl, pH 1.5.

IIaR/IIb (He_2aR/2b)	Binder
0.66	B1
0.54	B2
0.79	B3
0.33	B4
0.62	B5
0.67	B6
0.74	B7
0.77	B8
0.8	B9
0.77	B10
0.71	B11
0.54	B12
0.64	B13
0.8	B14
0.78	B15
0.64	B16
0.77	B17
0.72	B18
0.7	B19

Target: T1, FcγRIIa R (FcγRIIa, allotype R, Arg at …)
Experiment: Biacore SPR; binding relative to GpH7-A5/GpH7-B3/GpL16-k0 (=100)
Experimental: as §1, §2

He/Con_2aR (IIaR binding)	Binder
72.1 % of control	B1
5 % of control	B2
88.9 % of control	B3
2.5 % of control	B4
149 % of control	B5
6 % of control	B6
147 % of control	B7
98 % of control	B8
133 % of control	B9
137 % of control	B10
138 % of control	B11
7.5 % of control	B12
106 % of control	B13
127 % of control	B14
110 % of control	B15
148 % of control	B16
148 % of control	B17
124 % of control	B18
156 % of control	B19

Target: T2, FcγRIIb, extracellular domain with …
Experiment: as above
Experimental: as §1, §2

He/Con_2b (IIb binding)	Binder
109 % of control	B1
113 % of control	B3
239 % of control	B5
199 % of control	B7
127 % of control	B8
167 % of control	B9
177 % of control	B10
193 % of control	B11
13.9 % of control	B12
167 % of control	B13
160 % of control	B14
140 % of control	B15
230 % of control	B16
193 % of control	B17
172 % of control	B18
223 % of control	B19

Target: T3, FcγRIIa H (FcγRIIa type H, His at …)
Experiment: SPR Biacore; He/Con_2aH divided by He/Con_2b (reference: FcgRIIb)

He_2aH/2b (IIaH/IIb)	Binder
1.26	B20
4.6	B21
4.27	B22

Target: T3, FcγRIIa H (FcγRIIa type H, His at …)
Experiment: SPR Biacore, captured antibody, FcgR analyte; GpH7-A5/GpH7-B3/GpL16-k0 = 100

He/Con_2aH	Binder
11.3 % of HeCon Ab	B20
42.5 % of HeCon Ab	B21
32.2 % of HeCon Ab	B22

Target: T4, FcγRIa (human, UniProt P12314 16-292)
T4 construct: extracellular domain; also called FcgRI; CD64; not shown: C-terminal His tag
Experiment: SPR (Biacore), antibody captured on antigen peptide chip, FcγRIa as analyte; relative binding amount
Method in brief: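 SPR, 25° C, HBS-EP+; Ab captured via immobilized antigen peptide (CM5 amine coupling or SA/biotin); FcγR in running buffer as analyte; regen 10 mM glycine-HCl pH 1.5.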

T4 sequence (P12314 16-292): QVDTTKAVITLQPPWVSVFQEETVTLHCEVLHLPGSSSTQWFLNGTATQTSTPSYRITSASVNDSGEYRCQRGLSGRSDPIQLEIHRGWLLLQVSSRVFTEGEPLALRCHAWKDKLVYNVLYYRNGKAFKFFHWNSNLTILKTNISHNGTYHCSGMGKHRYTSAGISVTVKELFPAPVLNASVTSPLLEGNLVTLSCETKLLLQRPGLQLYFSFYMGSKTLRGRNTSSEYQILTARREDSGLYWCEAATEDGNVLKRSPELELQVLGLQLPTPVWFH

He/Con_1a	Binder
113 % of control (GpH7-A5/GpH7-B3/GpL16-k0 = 100)	B23
112 % of control (GpH7-A5/GpH7-B3/GpL16-k0 = 100)	B24
114 % of control (GpH7-A5/GpH7-B3/GpL16-k0 = 100)	B25
112 % of control (GpH7-A5/GpH7-B3/GpL16-k0 = 100)	B26
111 % of control (GpH7-A5/GpH7-B3/GpL16-k0 = 100)	B27
117 % of control (GpH7-A5/GpH7-B3/GpL16-k0 = 100)	B28
112 % of control (GpH7-A5/GpH7-B3/GpL16-k0 = 100)	B29
112 % of control (GpH7-A5/GpH7-B3/GpL16-k0 = 100)	B30
112 % of control (GpH7-A5/GpH7-B3/GpL16-k0 = 100)	B31
111 % of control (GpH7-A5/GpH7-B3/GpL16-k0 = 100)	B32
107 % of control (GpH7-A5/GpH7-B3/GpL16-k0 = 100)	B33
112 % of control (GpH7-A5/GpH7-B3/GpL16-k0 = 100)	B34
